{
  "source": "patent US20240325556A1",
  "about": "“Methods of Using Antibody-Drug-Conjugates” (priority 2021, published 2024)",
  "key": {"NCI-H1781 cells": {"system": "NCI-H1781 cells", "assay": "In vitro cytotoxicity assay against nectin-4-expressing cell line NCI-H1781", "assay_type": "cell-based", "details": "for IC50: NCI-H1781 cells, 5 days incubation, CellTiter-Glo viability, read-out: Absolute IC50", "description": "Cell lines were plated on Day −1 in 96-well plates (Corning #3603) at a density of 4×10^3 cells/well in 100 μL of growth media and cultured overnight. On Day 0, serial dilution of test samples was performed in growth media at 6× the final concentration and 20 μL was added to the cells. After incubation at 37° C. with 5% CO2 for 5 days, viability was measured using Promega CellTiter-Glo® according to the manufacturer's recommendations.\nMethods: Free payloads (MMAE and camptothecin) and nectin-4 ADCs carrying either MMAE, camptothecin, or maytansine were produced and tested in an in vitro cytotoxicity assay against the nectin-4-expressing cell line, NCI-H1781 (FIG. 1)."}, "[1]": {"assay": "Toxicokinetic analysis of rat plasma samples (total antibody and total ADC ELISA)", "assay_type": "in vivo", "details": "repeat dose toxicity study, listed as RED-106 conjugate", "description": "(§1) Male Sprague-Dawley rats (8-9 wk old at study start, 5 animals/group) were dosed intravenously with either vehicle alone or with nectin-4 conjugates made using antibodies carrying the variable regions of the rat cross-reactive antibody, enfortumab. The tested ADCs were nectin-4 vedotin (dosed at 10 mg/kg), and nectin-4 CH1/CT RED-106 (dosed at either 10 or 20 mg/kg). Dosing occurred weekly for a total of 4 doses (days 1, 8, 15, and 22). […] Body weights were recorded four times/week. Blood was collected from all animals for clinical pathology on days 5, 12, 19, and 26, and for toxicokinetic analysis at 8 h and days 4 and 7 post-dose (for all doses). Clinical observations were conducted daily.\nMethods: Total antibody and total ADC concentrations were quantified by ELISA as previously described and diagrammed in the figure. For total antibody, conjugates were captured with an anti-human IgG-specific antibody and detected with an HRP-conjugated anti-human Fc-specific antibody. For total ADC, conjugates were captured with an anti-human Fab-specific antibody and detected with a mouse anti-maytansine primary antibody, followed by an HRP-conjugated anti-mouse IgG-subclass 1-specific secondary antibody. Bound secondary antibody was detected using Ultra TMB One-Step ELISA substrate (Thermo Fisher). […] Data were analyzed using GraphPad Prism and Microsoft Excel software."}, "Male Sprague-Dawley rats": {"system": "Male Sprague-Dawley rats", "assay": "Non-GLP rat toxicology study of nectin-4 ADCs", "assay_type": "in vivo", "details": "4 doses", "description": "as §1\nMethods: Rat cross-reactive nectin-4 ADCs carrying either RED-106 or vedotin linker-payloads were prepared (DAR depicted in FIGS. 8A-8D) and tested in a rat toxicity study."}, "[2]": {"details": "10 mg/kg weekly for four doses; cited from earlier work"}, "[3]": {"details": "preclinical and clinical effects; cited from earlier work"}},
  "note": "Where two headings read alike, the source gives them in different places. Square brackets hold non-standard residues; d marks the D form. Peptide text beside a SMILES is read from it. * marks the point of attachment. Dolaproine = CO[C@@H]([C@@H]1CCCN1)[C@@H](C)C(=O)O; Dil = CC[C@H](C)[C@H](NC)[C@@H](CC(=O)O)OC; X1 = C[C@@H](N*)[C@@H](O)c1ccccc1; NMeV = CN[C@H](C(=O)O)C(C)C",
  "data": [
    {"molecule": "N.N.[Cl][Pt][Cl]", "note": "[Cisplatin]", "values": [
      {"measurement": "IC50", "setting": "NCI-H1781 cells", "value": 230, "unit": "nM"}
    ]},
    {"molecule": "CC[C@@]1(O)C(=O)OCc2c1cc1n(c2=O)Cc2cc3ccccc3nc2-1", "note": "[Free Camptothecin, camptothecin]", "values": [
      {"measurement": "IC50", "setting": "NCI-H1781 cells; 120 h", "value": 1, "unit": "nM"}
    ]},
    {"molecule": "CC[C@H](C)[C@@H]([C@@H](CC(=O)N1CCC[C@H]1[C@H](OC)[C@@H](C)C(=O)N[C@H](C)[C@@H](O)c1ccccc1)OC)N(C)C(=O)[C@@H](NC(=O)[C@@H](NC)C(C)C)C(C)C", "note": "[Free MMAE, monomethyl auristatin E] (H-[NMeV]V[Dil][Dolaproine]-X1)", "values": [
      {"measurement": "IC50", "setting": "NCI-H1781 cells", "value": 0.3, "unit": "nM"}
    ]},
    {"molecule": "Nectin-4 CH1/CT RED-106: nectin-4 ADC with variable regions of enfortumab, CH1/CT aldehyde-tagged, carrying RED-106 maytansine linker-payload", "values": [
      {"measurement": "IC50", "setting": "NCI-H1781 cells", "value": 1, "unit": "nM"},
      {"measurement": "In vitro potency of RED-106 conjugate compared with MMAE conjugate", "setting": "NCI-H1781 cells; NCI-H1781 target cell line", "value": "similar"},
      {"measurement": "In vivo stability of the conjugate compared with the vedotin ADC", "setting": "[1]", "value": "improved in vivo stability"},
      {"measurement": "Mortality", "setting": "Male Sprague-Dawley rats; 10 or 20 mg/kg i.v. weekly", "value": "no mortalities"},
      {"measurement": "Signs of fur/skin toxicity compared with vedotin conjugate", "setting": "Male Sprague-Dawley rats; 10 or 20 mg/kg i.v. weekly", "value": "fewer signs of fur/skin toxicity"}
    ]},
    {"molecule": "nectin-4 vedotin: nectin-4 conjugate with enfortumab variable regions, untagged antibody conjugated with maleimide-valcit-MMAE [reference compound]", "values": [
      {"measurement": "Toxicity noted in previous reports", "setting": "[2]", "value": "fur and skin toxicity and mortality"},
      {"measurement": "Clinical signs of toxicity in fur and skin", "setting": "Male Sprague-Dawley rats; 10 mg/kg i.v. weekly", "value": "all animals exhibited clinical signs of toxicity in fur and skin"},
      {"measurement": "Animals euthanized in distress", "setting": "Male Sprague-Dawley rats; 10 mg/kg i.v. weekly, 5 animals/group", "value": 1, "unit": "animal"}
    ]},
    {"molecule": "DS-1062 (conjugate, chains of the INN, looked up, deruxtecan payload) VH: QVQLVQSGAEVKKPGASVKVSCKASGYTFTTAGMQWVRQAPGQGLEWMGWINTHSGVPKYAEDFKGRVTISADTSTSTAYLQLSSLKSEDTAVYYCARSGFGSSYWYFDVWGQGTLVTVSS VL: DIQMTQSPSSLSASVGDRVTITCKASQDVSTAVAWYQQKPGKAPKLLIYSASYRYTGVPSRFSGSGSGTDFTLTISSLQPEDFAVYYCQQHYITPLTFGQGTKLEIK", "values": [
      {"measurement": "Toxicity noted in previous reports", "setting": "[3]", "value": "skin and mucosal toxicity"}
    ]}
  ]
}
